Columns and labels:
Test in all cases: native gel or EMSA; native PAGE (3–12% Bis-Tris gradient gels, G-250 additive) of cleared lysates of transfected cells, immunoblot; trimeric and dimeric GCN4 variants as mobility reference
[1] = target: MeV P with residues 303–377 replaced by the tetrameric mutant of the yeast GCN4 coiled-coil (measles virus (strain IC-B) | yeast) (UniProt Q9WMB4)
[2] = target: MeV P-GCN4_(303-360), P with OD residues 303–360 replaced by the tetrameric mutant of the yeast GCN4 coiled-coil (measles virus (strain IC-B) | yeast) (UniProt Q9WMB4)
[3] = target: the molecule itself

Molecule	stoichiometry N [3]	further results
MeV P with residues 303–377 replaced by the tetrameric mutant of the yeast GCN4 coiled-coil (from UniProt Q9WMB4 1-302; Q9WMB4 378-507)		stoichiometry N [1]: 4
MeV P-GCN4_(303-360), P with OD residues 303–360 replaced by the tetrameric mutant of the yeast GCN4 coiled-coil (from UniProt Q9WMB4 1-302; Q9WMB4 361-507)		stoichiometry N [2]: 4
MeV P (361–364)Ala, P with residues 361–364 substituted with alanines (natural protein, measles virus (strain IC-B), UniProt Q9WMB4 1-507, looked up, MeV strain IC-B phosphoprotein P; of the old residues only S361 is printed in the text; also called M1; source: transiently transfected cells, in lysate; not shown: HA, C-terminal, kept) MAEEQARHVKNGLECIRALKAEPIGSLAVEEAMAAWSEISDNPGQDRATCKEEEAGSSGLSKPCLSAIGSTEGGAPRIRGQGSGESDDDAETLGIPSRNLQASSTGLQCYHVYDHSGEAVKGIQDADSIMVQSGLDGDSTLSGGDDESENSDVDIGEPDTEGYAITDRGSAPISMGFRASDVETAEGGEIHELLKLQSRGNNFPKLGKTLNVPPPPNPSRASTSETPIKKGTDARLASFGTEIASLLTGGATQCARKSPSEPSGPGAPAGNVPECVSNAALIQEWTPESGTTISPRSQNNEEGGDYYDDELFSDVQDIKTALAKIHEDNQKIISKLESLLLLKGEVESIKKQINRQNISIAAAAGHLSSIMIAIPGLGKDPNDPTADVELNPDLKPIIGRDSGRALAEVLKKPVASRQLQGMTNGRTSSRGQLLKEFQLKPIGKKVSSAVGFVPDTGPASRSVIRSIIKSSRLEEDRKRYLMTLLDDIKGANDLAKFHQMLMKIIMK	4	
MeV phosphoprotein (P), wild type (natural protein, measles virus (MeV) strain IC-B phosphoprotein P, codon-optimized synthetic ORF; ends at residue 507 by the printed limits of P-XD (459–507); also called wild type P; wt P; not shown: HA, C-terminal, kept) MAEEQARHVKNGLECIRALKAEPIGSLAVEEAMAAWSEISDNPGQDRATCKEEEAGSSGLSKPCLSAIGSTEGGAPRIRGQGSGESDDDAETLGIPSRNLQASSTGLQCYHVYDHSGEAVKGIQDADSIMVQSGLDGDSTLSGGDDESENSDVDIGEPDTEGYAITDRGSAPISMGFRASDVETAEGGEIHELLKLQSRGNNFPKLGKTLNVPPPPNPSRASTSETPIKKGTDARLASFGTEIASLLTGGATQCARKSPSEPSGPGAPAGNVPECVSNAALIQEWTPESGTTISPRSQNNEEGGDYYDDELFSDVQDIKTALAKIHEDNQKIISKLESLLLLKGEVESIKKQINRQNISISTLEGHLSSIMIAIPGLGKDPNDPTADVELNPDLKPIIGRDSGRALAEVLKKPVASRQLQGMTNGRTSSRGQLLKEFQLKPIGKKVSSAVGFVPDTGPASRSVIRSIIKSSRLEEDRKRYLMTLLDDIKGANDLAKFHQMLMKIIMK	4	

Reference: PMC6695210, “Bipartite interface of the measles virus phosphoprotein X domain with the large polymerase protein regulates viral polymerase dynamics” (PLoS Pathogens, 2019)
